This assay deals with HB-EGF receptor (UniProt Q99075). Briefly: cell-based or functional assay.

Here are results for one substance from patent publication US20210401961A1.

Sequence of UniProt Q99075 (Q99075 63-148 limits assumed): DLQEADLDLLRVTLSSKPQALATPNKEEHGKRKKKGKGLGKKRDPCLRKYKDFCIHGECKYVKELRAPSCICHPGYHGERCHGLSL

Turning to “CRM197-Alexa488 (from UniProt P00587 26-560)”, the labelling of OV90 tumor cells with CRM197-Alexa488 after 24 hours (flow cytometry, 10 µg/mL) was 98.2%; the percentage of CRM197-Alexa488 uptake by OV90 tumor cells after 4 hours (flow cytometry, 10 µg/mL) was determined as 82%; the percentage of OV90 tumor cells with CRM197-Alexa488 signal after 4 hours with trypan blue quenching (intracellular) came to 72.7%; the percentage of OV90 tumor cells with CRM197-Alexa488 signal after 24 hours with trypan blue quenching (intracellular) came out at 97.6%.
